# In the supplement of paper PMC10724198:
# ± gives the standard deviation of the averaged measurements.
# Test system: Saccharomyces cerevisiae
# Experiment: protein stability index of tFT-peptide fusion (C-terminal peptide) (PSI (0-1 scale)); higher = more stable (slower turnover)
# Conditions: genetic background: wild type; temperature: 30 C
# Method: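 MPS profiling in S. cerevisiae of the tFT-X12 degron library: putative degron peptides plus stable controls, 12 aa, fused to the C-terminus of a sfGFP-mCherry timer. Cells are FACS-sorted into 8 mCherry/sfGFP bins and deep-sequenced. PSI runs from 0 (unstable) to 1 (stable). Backgrounds are wild type, das1Δ and doa10Δ at 30 °C, and wild type, das1Δ, cdc34-1 and cdc53-1 at 37 °C; 2-3 technical replicates each.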
# 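Further: PSI is a weighted mean of sequencing reads over stability bins, variants kept only with over 10 reads, mCherry proximal and sfGFP distal, peptide attached via GGGS linker.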
row,Sequence,protein stability index
1,LLSLPTTNLMAF,0.403 ± 0.018
2,LLTLILRIFVLN,0.147 ± 0.028
3,LLVFFLAIPSLV,0.219 ± 0.033
4,LLVFSLLYPCLV,0.272 ± 0.02
5,LLVIAIKVPANS,0.358 ± 0.012
6,LLVYLYFFFSCS,0.263 ± 0.011
7,LLYHFCLFFFRE,0.449 ± 0.011
8,LMVLISVMFSLG,0.182 ± 0.032
9,LMWVFPRVVWLY,0.0646 ± 0.0052
10,LPLHTLLLCPPV,0.382 ± 0.024
11,LPLVFYCFLLHS,0.376 ± 0.035
12,LPVPVLGFPPLA,0.655 ± 0.015
13,LRCCGALPLYAY,0.228 ± 0.028
14,LRFFYFLHFCIL,0.223 ± 0.0052
15,LRRVHRIKLQVC,0.0996 ± 0.015
16,LRVAWVCISIVA,0.0495 ± 0.015
17,LRVPCPPCCVFV,0.334 ± 0.009

row,Sequence,protein stability index
1,LSQPGWFKCCLS,0.326 ± 0.023
2,LSRFRYFVLTSL,0.171 ± 0.019
3,LSVSEILAVKCG,0.411 ± 0.026
4,LTACRYVCFLLF,0.261 ± 0.032
5,LTFRFGVNPYVF,0.14 ± 0.023
6,LVLELYRFARFG,0.276 ± 0.043
7,LVLFVVGGWVSL,0.311 ± 0.029
8,LVSLCYAYPRYC,0.279 ± 0.031
9,LVVAVLKIIMSS,0.0742 ± 0.023
10,LWFLDYVFICFL,0.299 ± 0.018
11,LWFRCVRMQACR,0.41 ± 0.015
12,LWLFIVCWVGCV,0.177 ± 0.025
13,LWLVSLLVLWLT,0.256 ± 0.02
14,LWNFYELVVYAM,0.121 ± 0.019
15,LYLFKVLFFRVF,0.0584 ± 0.016
16,LYYSVIFLFLSW,0.208 ± 0.026

# Same assay, conditions: genetic background: wild type; temperature: 37 C
row,Sequence,protein stability index
1,LLSLPTTNLMAF,0.56467 ± 0.00055
2,LLTLILRIFVLN,0.217 ± 0.037
3,LLVFFLAIPSLV,0.3853 ± 0.002
4,LLVFSLLYPCLV,0.3913 ± 0.0032
5,LLVIAIKVPANS,0.485 ± 0.00075
6,LLVYLYFFFSCS,0.42 ± 0.027
7,LLYHFCLFFFRE,0.558 ± 0.053
8,LMVLISVMFSLG,0.231 ± 0.012
9,LMWVFPRVVWLY,0.0611 ± 0.00062
10,LPLHTLLLCPPV,0.4782 ± 0.0033
11,LPLVFYCFLLHS,0.509 ± 0.015
12,LPVPVLGFPPLA,0.71 ± 0.011
13,LRCCGALPLYAY,0.341 ± 0.022
14,LRFFYFLHFCIL,0.286 ± 0.021
15,LRRVHRIKLQVC,0.102 ± 0.0019
16,LRVAWVCISIVA,0.0664 ± 0.0091
17,LRVPCPPCCVFV,0.4302 ± 0.0026

row,Sequence,protein stability index
1,LSQPGWFKCCLS,0.463 ± 0.029
2,LSRFRYFVLTSL,0.263 ± 0.037
3,LSVSEILAVKCG,0.5632 ± 0.0052
4,LTACRYVCFLLF,0.424 ± 0.012
5,LTFRFGVNPYVF,0.283 ± 0.015
6,LVLELYRFARFG,0.532 ± 0.038
7,LVLFVVGGWVSL,0.54 ± 0.076
8,LVSLCYAYPRYC,0.5826 ± 0.0029
9,LVVAVLKIIMSS,0.0596 ± 0.0031
10,LWFLDYVFICFL,0.399 ± 0.011
11,LWFRCVRMQACR,0.492 ± 0.0094
12,LWLFIVCWVGCV,0.31 ± 0.0052
13,LWLVSLLVLWLT,0.383 ± 0.013
14,LWNFYELVVYAM,0.114 ± 0.0054
15,LYLFKVLFFRVF,0.102 ± 0.015
16,LYYSVIFLFLSW,0.334 ± 0.033
